Laboratory results as given in the RNAGym collection of RNA variant scans (doi:10.1073/pnas.2313332121).

B1: TPR t1 (parent)
chain: GACCAAUCUGCCCUCAGAGCUCGAGAACAUCUUCGGAUGCAGAGGAGGCAGGCUUCGGUGGCGCGAUAGCGCCAACGUCCUCAACCUCCAAUGCAUCCCACCACAUGAUGAUGCCUGAAGAGCCUUGGUUUUUUG

Variants of: B1
Assay: polymerase ribozyme fitness, log enrichment relative to wild type (log ratio); higher = more active; in vitro selection for triplet polymerase activity
Summary of the method: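 Streptavidin-bead capture of gel-excised extended constructs, followed by RT-PCR, closed a single triplicate in vitro selection round. That round began by annealing PCR-built, transcribed mutant libraries of each subunit of a heterodimeric triplet polymerase ribozyme with a biotinylated primer, the partner subunit and triplets, then incubating them frozen at −7 °C. After Illumina sequencing of inputs and outputs, genotypes needed ≥10 input reads and ≥1 read per output. Fitness is the base-2 logarithm of genotype enrichment over wild-type enrichment, using inverse-variance-weighted replicate averages.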

Variant | polymerase ribozyme fitness (log ratio)
GACCAAUCUGCCCUCAGAGCUCGAGAACAUCUUCGGAUGCAGAGGUGGCAGGCUUCGGUGGCGCGAUAGCGCCAACGUCCUCAACCUCCAAUGCAUCCCAACACAUGAUGAUGCCUGAAGAGCCUUGGUGUUUUG [A46U C101A U130G] | -2.84
GACCAAUCUGCCCUCAGAGCUCGAGAACAUCUUCGGAUGCAGAGGUGACAGGCUUCGGUGGCGCGAUAGCGCCAACGUCCUCAACCUCCAAUGCAUCCCACCAUAUGAUGAUGCCUGAAGAGCCUUGGUUUUUUG [A46U G48A C104U] | -1.94
GACCAAUCUGCCCUCAGAGCUCGAGAACAUCUUCGGAUGCAGAGGUGGCAGGCUUCGGUGGCGCGAUAGCGCCAACGUCCUCAACCUCCAAUGCAUCCCACCACAUGAUGAUGCAUGAAGAGCCUUGGUUUUUUG [A46U C115A] | -1.98
GACCAAUCUGCCCUCAGAGCUCGAGAACAUCUUCGGAUGCAGAGGUGGCAGGCUUCGGUGGCGCGAUAGCGCCAACGUCCUCAACCUCCAAUGCAUCCCACCACAGGAUGAUGCCUGAAGAGCCUUGGUUUUUUG [A46U U106G] | -2.72
GACCAAUCUGCCCUCAGAGCUCGAGAACAUCUUCGGAUGCAGAGGUGGCAGGCUCCGGUGGCGCGAUAGCGCCAACGUCCUCAACCUCCAAUGCCUCCCACCACAUGAUGAUGCCUGAAGAGCCUUGGUUUUUUG [A46U U55C A95C] | -2.5
GACCAAUCUGCCCUCAGAGCUCGAGAACAUCUUCGGAUGCAGAGGUGGCAGGCUUCGGUGGUGCGAUAGCGCCAACGUCCUCAACCUCCAUUGCAUCCCACCGCAAGAUGAUGUCUGAAGAGCCUUGGUUGUUUG [A46U C62U A91U A103G U106A C114U U131G] | -6.47
GACCAAUCUGCCCUCAGAGCUCGAGAACAUCUUCGGAUGCAGAGGUGGCAGGCUUCGGUGGCGCGAUAGCGCCAACGUCCUCAACCUCCAAUGCAUCCCACCACAUGAUGAUGCCUGAAGAGCAUUGGUUCUUUG [A46U C124A U131C] | 1.32
GACCAAUCUGCCCUCAGAGCUCGAGAACAUCUUCGGAUGCAGAGGUGGCAGGCUUCGGUGGCGCGAUAGCGGCAACGUCCUCAACCUCCAAUGCAUCCCACCACAUGAUGAUGCCUGAAGAGCCUUGGUUUUUUG [A46U C72G] | -1.4
GACCAAUCUGCCCUCAGAGCUCGAGAACAUCUUCGGAUGCAGAGGUGGCAGGCUUCGCUGGCGCGAUAGAGCCAACGUCCUCAACCUCCAAUGCAUCCCACCACAUGAUGAUGCCUGAAGAGCCUUGGUUUUUUG [A46U G58C C70A] | -2.22
GACCAAUCUGCCCUCAGAGCUCGAGAACAUCUUCGGAUGCAGAGGUGGCAGGCUUCGGUGGCGCGAUAGCGCAAACGUCCUCAACCUCCAAUGCAUCCCACCACAUGAUGAUGCCUGAAGAGGCUUAGUUUUUUG [A46U C73A C123G G127A] | -0.933
GACCAAUCUGCCCUCAGAGCUCGAGAACAUCUUCGGAUGCAGAGGUGGCAGGCUUCGGUGGGGCGAUAGCGCCAACGUCCUCAACCUACAAUGCAUCCCACCACAUGAUGAUGCCUGAAGAGCCUUGGUUUUUUG [A46U C62G C88A] | -4.01
GACCAAUCUGCCCUCAGAGCUCGAGAACAUCUUCGGAUGCAGAGGUGGCAGACUUCGGUGGCGCGAUAGCGCCAACGUCCUCAACCUCCAAUGCAUCCCACCACAUGACGAUGCCUGAAGAGCGUUGGUUUUUUG [A46U G52A U109C C124G] | -7.25
GACCAAUCUGCCCUCAGAGCUCGAGAACAUCUUCGGAUGCAGAGGUGGCAGGCUUCGGUGUCGCGAUAGCGCCAACGUCCUCAACCUCCAAUGCAUCCCACCACAUGAUGAUGCCUGAAGAGCCUUGGUUUUUUG [A46U G61U] | -0.648
GACCAAUCUGCCCUCAGAGCUCGAGAACAUCUUCGGAUGCAGAGGUGGCAGGCUUCGGUGGCGCGAUAGCGCUAACGUCCUCAACCUCCCAUGCAUCCCACCACAUGAUGAUGCCUGAAGAGCCUUGGUUUUAUG [A46U C73U A90C U133A] | -1.35
GACCAAUCUGCCCUCAGAGCUCGAGAACAUCUUCGGAUGCAGAGGAAGCAGGCUUCGGUGGCGCGAUAGCGCCAACGUCCUCAACCUCCAAUGCCUCCCACCACAUGAUGAUGCCUGAAGAGCCUUGGUUUUUUG [G47A A95C] | -1.79
GACCAAUCUGCCCUCAGAGCUCGAGAACAUCUUCGGAUGCAGAGGUGACAGGCUUCGGUGGUGCGAUAGCGCCAACGUCCUCAACCUCCAAUGCAUCCCACCACAUGAUGAUGCCUGAAGAGCCUUGGUUUUUUG [A46U G48A C62U] | -2.23
GACCAAUCUGCCCUCAGAGCUCGAGAACAUCUUCGGAUGCAGAGGUGGCAGGCUUCGGUAGCGCGAUAGCGCCAACGUCAUCAACCUCCAAUGCAUCCCACCACAUGAUGAUGCCUGAAGGGCCUUGGUUUUUUG [A46U G60A C80A A121G] | -1.19
GACCAAUCUGCCCUCAGAGCUCGAGAACAUCUUCGGAUGCAGAGGUGGCAGGCUUCAGUGGCGCGAUAGCGCCAACGUGCUCAACCUCCAAUGCAUCCCACCACAUGAUGAUGCCUGAAGAGCCUUGGUUUUUUG [A46U G57A C79G] | -2.59
GACCAAUCUGCCCUCAGAGCUCGAGAACAUCUUCGGAUGCAGAGGUGGCAGGCUUCGGUGGCGCGAUAGCGGCAACGUCCUCAACCUCCAAUGCAUCCCACCACAUGAUGAUGUCUGAAGAGCCUUGGUUUUUUG [A46U C72G C114U] | -4.52
GACCAAUCUGCCCUCAGAGCUCGAGAACAUCUUCGGAUGCAGAGGUGGCAGGCUUCGGUGGCGCGAUAGCGGCAACGUCCUCAACCUCCAAUGCAUCCCACCACAUGAUGAUGGCUGAAGAGCCUUGGUUUUUUG [A46U C72G C114G] | -3.52
GACCAAUCUGCCCUCAGAGCUCGAGAACAUCUUCGGAUGCAGAGGUGACAGGCUUCGGUGGCGCGAUAGCGCCAACGUCCUCAACCUCCAAUGCAUCCCACCACAUGAUGAUGCCUGAAGAGCCUUGAUUUUUUG [A46U G48A G128A] | -4.23

Variant | polymerase ribozyme fitness (log ratio)
GACCAAUCUGCCCUCAGAGCUCGAGAACAUCUUCGGAUGCAGAGGUGGCAGGCUUCGGUGACGCGUUAGCGCCAACGUCCUCAACCUCCAAUGCAUCCCACCACAUGAUGAUUCCUGAAGAGGCUUGGAUUUUUG [A46U G61A A66U G113U C123G U129A] | -5.08
GACCAAUCUGCCCUCAGAGCUCGAGAACAUCUUCGGAUGCAGAGGUGGCAGGCUUCGGUGGCGCGAUAGUGCCAACGUCCUCAACCUCCAAUGCAUCCCACCACAUGAUGAUGCCUGAAGAGCUUUGGUUUUUUG [A46U C70U C124U] | -0.517
GACCAAUCUGCCCUCAGAGCUCGAGAACAUCUUCGGAUGCAGAGGUGGCAGGCUUCGGUGGCGCGAUAGCGCUAACGUCCUCAACCUCCAAUGCAUCCCACCACAUGAUGAUGCCUGAAGAGCCUUGGUUUUUUG [A46U C73U] | -1.08
GACCAAUCUGCCCUCAGAGCUCGAGAACAUCUUCGGAUGCAGAGGUGGCAGGCUUCGGUGGCGCGAUAGCGCGAACGUCCUCAACCUCCAAUGCAUCCCACCACAUGAUGAUGCCUGAAGAGCCUUGGUUUUUUG [A46U C73G] | -2.11
GACCAAUCUGCCCUCAGAGCUCGAGAACAUCUUCGGAUGCAGAGGUGGCAGGCUUCGGUGGCGCGAUAGCGCCAACGUCCUCAACCUCCAAUGCAUCCCACCACAUUAUGAUGCCUGAAGAGCCUUGGUUUUUUG [A46U G107U] | -5.66
GACCAAUCUGCCCUCAGAGCUCGAGAACAUCUUCGGAUGCAGAGGUGGCAGGCUUCGGUGGCGCGAUAGCGCCAACGUCCUCAACCUCCAAUGCAUCCCACCACAUGAUGAUGCCUGAAGAUCCUUGGUUUUUUG [A46U G122U] | -0.865
GACCAAUCUGCCCUCAGAGCUCGAGAACAUCUUCGGAUGCAGAGGUGGCAGGCUUCGGUGGCGUGAUAGCGCCAACGUCCUCAACCUCCAAUGCAUCCCAUCACAUGAUGAUGCCUGAAGAGCCUUGGUUUCUUG [A46U C64U C101U U132C] | -1.55
GACCAAUCUGCCCUCAGAGCUCGAGAACAUCUUCGGAUGCAGAGGUGGCAGGCUUCUGUGGCGCGAUAGCGCCAACGUCCUCAACCUCCAAUGCAUCCCACCACAUGAUGAUGCCUGAAGAGCCUUGGUUUAUUG [A46U G57U U132A] | -0.968
GACCAAUCUGCCCUCAGAGCUCGAGAACAUCUUCGGAUGCAGAGGUGACAGGCUUCGGUGGCGCGAUAGCGCCAACGUCCUCAACCACCAAUGCAUCCCACCACAUGAUGAUGCCUGAAAAGCCUUGGCUUUUUG [A46U G48A U87A G120A U129C] | -0.344
GACCAAUCUGCCCUCAGAGCUCGAGAACAUCUUCGGAUGCAGAGGUGGCAGGCUUCGGUGGCGUGAUAGCGCCAACGUCCGCAACCUCCAAUGCAUCCCACCACAUGAUGAUGCCUGAAGAGCCUUGGUUUUUUG [A46U C64U U81G] | -6.35
GACCAAUCUGCCCUCAGAGCUCGAGAACAUCUUCGGAUGCAGAGGUGGCAGGCUUCGGUGGCGCGAUAGCGCGAACUUCCUCAACCUCCAAUGCAUCCCAACAUAUGAUGAUGCCUGAAGAGCCUUGGUUUUUUG [A46U C73G G77U C101A C104U] | -2.96
GACCAAUCUGCCCUCAGAGCUCGAGAACAUCUUCGGAUGCAGAGGUGGCAGGCUUCGGUGGCGCGAUAGCGCCAACGUCCUCAACCUCCAAUGCAUCCCACCACAUGAUGAAGCCUGAAGAGCCUUGGUUUUUUG [A46U U112A] | 0.36
GACCAAUCUGCCCUCAGAGCUCGAGAACAUCUUCGGAUGCAGAGGUGGCAGGCUUCGGUGGCGCGAUAGCGCCAACAUCCUCAACCUCCAAUGCAUCCCACCACAUGAUGAUGCCUGAAGAGACUUGGAUUUUUG [A46U G77A C123A U129A] | -2.69
GACCAAUCUGCCCUCAGAGCUCGAGAACAUCUUCGGAUGCAGAGGUGGCAGGCUUCGGUGGCGCGAUAGCGCCAACGUCCUCAACCUCCAAUGCAUCCCACCACAUGAUGAUGGCUGAAGAGCCUUGGUUUUUUG [A46U C114G] | -3.78
GACCAAUCUGCCCUCAGAGCUCGAGAACAUCUUCGGAUGCAGAGGUGGCAGGCUUCGGUGGCGCGAUAGCGCCAACGUCCUCAACCUCCAAUGCAUCCCACCACAUGAUGAUGCCUGAAGAGCCAUGGUUUUUUG [A46U U125A] | -1.67
GACCAAUCUGCCCUCAGAGCUCGAGAACAUCUUCGGAUGCAGAGGUGGCAGGCUUCGGUGGCUCGAUAGCGCCAACGACCUCAACCUCCUAUGCAUCCCACCACAUGAUGAUGCCUGAAGAGCCUUGGUUUUUUG [A46U G63U U78A A90U] | -3.56
GACCAAUCUGCCCUCAGAGCUCGAGAACAUCUUCGGAUGCAGAGGAAGCAGGCUUCGGUGGCGCGAUAGCGCCAACGUCCUCACCCUCCAAUGCAUCCCACCACAUGAUGAUGCCUGAAGCGCCUUGGUUUUUUG [G47A A84C A121C] | 0.928
GACCAAUCUGCCCUCAGAGCUCGAGAACAUCUUCGGAUGCAGAGGUAGCGGGCUUCGGUAGCGCGAUAGCGCCAACGUCCUCAACCUCCAAUGCAUCCCACCACAUGAUGAUGCCUGAAGAGCCUUGGUUUUUUG [A46U G47A A50G G60A] | -3.56
GACCAAUCUGCCCUCAGAGCUCGAGAACAUCUUCGGAUGCAGAGGUGGCAGGCUUCGGUGGCGCGAUAGCGCCAACGUCCUCAACCUCCAAUACAUCCCACCACAUGAUGAUGCCUGAAAAACCUUGGUUUUUUG [A46U G93A G120A G122A] | -3.08
GACCAAUCUGCCCUCAGAGCUCGAGAACAUCUUCGGAUGCAGAGGUGGCAGGCUUCGGUGGCGCGAUAGCGCCAACGUACUCAACCUCCAAUGCAUCCCACCACAUGAUGAUGCGUGAAGAGCCUUGGUUUUUUG [A46U C79A C115G] | -5.77
GACCAAUCUGCCCUCAGAGCUCGAGAACAUCUUCGGAUGCAGAGGAAGCUGGCUUCGGUGGCGCGAUAGCGCCAACGUCCUCAACCUCCACUGCAUCCCACCACAUGAUGAUGCCUGAAGAGCCUUGGUUUUUUG [G47A A50U A91C] | -4.79
